Experimental data taken from article PMC8429565, “Conformational rearrangements enable iterative backbone N-methylation in RiPP biosynthesis” (Nature Communications, 2021).
One block for each binder: values may come before it.

B3: his6-SonM, wild type, individually expressed (enzyme, Shewanella oneidensis MR-1, UniProt Q8EGW3 1-263, looked up)
chain: MGSLVCVGTGLQLAGQISVLSRSYIEHADIVFSLLPDGFSQRWLTKLNPNVINLQQFYAQNGEVKNRRDTYEQMVNAILDAVRAGKKTVCALYGHPGVFACVSHMAITRAKAEGFSAKMEPGISAEACLWADLGIDPGNSGHQSFEASQFMFFNHVPDPTTHLLLWQIAIAGEHTLTQFHTSSDRLQILVEQLNQWYPLDHEVVIYEAANLPIQAPRIERLPLANLPQAHLMPISTLLIPPAKKLEYNYAILAKLGIGPEDLG
notes: SonM (SO1478), α-N-methyltransferase of Shewanella oneidensis MR-1, 263 AA; gene sonM amplified from genomic DNA; also called wt; source: E. coli BL21(DE3), pET28b, purified (Ni-NTA or HisTrap, Superdex 200 SEC); not shown: His6, N-terminal, kept

Columns and labels:
[1] = biological target: T1, his6-SonM-Y58F, individually expressed (Shewanella oneidensis MR-1, UniProt Q8EGW3 1-263, SonM-Y58F); test: cell-based or functional assay
T1 sequence (looked up): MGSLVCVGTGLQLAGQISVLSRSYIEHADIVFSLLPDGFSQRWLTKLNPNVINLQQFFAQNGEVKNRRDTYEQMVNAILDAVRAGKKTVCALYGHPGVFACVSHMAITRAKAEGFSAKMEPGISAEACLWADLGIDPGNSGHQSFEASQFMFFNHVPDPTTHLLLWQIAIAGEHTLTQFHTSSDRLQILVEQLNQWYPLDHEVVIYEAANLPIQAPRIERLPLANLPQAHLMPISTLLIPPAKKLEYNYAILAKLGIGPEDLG

[2] = biological target: T2, his6-SonM-R67K, individually expressed (Shewanella oneidensis MR-1, UniProt Q8EGW3 1-263, SonM-R67K); test: cell-based or functional assay
T2 sequence (looked up): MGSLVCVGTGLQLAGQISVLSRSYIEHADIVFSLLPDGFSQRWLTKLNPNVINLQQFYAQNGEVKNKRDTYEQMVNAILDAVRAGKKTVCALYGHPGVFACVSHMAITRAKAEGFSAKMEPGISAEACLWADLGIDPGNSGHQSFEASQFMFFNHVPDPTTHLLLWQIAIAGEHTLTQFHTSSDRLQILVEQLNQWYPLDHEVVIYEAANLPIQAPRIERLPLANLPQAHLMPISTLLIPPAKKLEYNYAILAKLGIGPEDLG

[3] = biological target: T3, his6-SonM-Y71F, individually expressed (Shewanella oneidensis MR-1, UniProt Q8EGW3 1-263, SonM-Y71F); test: cell-based or functional assay
T3 sequence (looked up): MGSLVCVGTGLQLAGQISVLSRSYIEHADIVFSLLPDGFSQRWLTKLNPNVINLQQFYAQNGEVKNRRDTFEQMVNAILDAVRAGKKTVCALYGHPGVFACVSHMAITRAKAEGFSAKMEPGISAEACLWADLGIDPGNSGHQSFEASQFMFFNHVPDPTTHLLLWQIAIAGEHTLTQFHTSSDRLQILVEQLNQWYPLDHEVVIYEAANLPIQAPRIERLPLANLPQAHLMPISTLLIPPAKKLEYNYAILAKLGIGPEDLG

[4] = biological target: B3; test: cell-based or functional assay
[5] = biological target: T4, his6-SonM-Y93F, individually expressed (Shewanella oneidensis MR-1, UniProt Q8EGW3 1-263, SonM-Y93F); test: cell-based or functional assay
T4 sequence (looked up): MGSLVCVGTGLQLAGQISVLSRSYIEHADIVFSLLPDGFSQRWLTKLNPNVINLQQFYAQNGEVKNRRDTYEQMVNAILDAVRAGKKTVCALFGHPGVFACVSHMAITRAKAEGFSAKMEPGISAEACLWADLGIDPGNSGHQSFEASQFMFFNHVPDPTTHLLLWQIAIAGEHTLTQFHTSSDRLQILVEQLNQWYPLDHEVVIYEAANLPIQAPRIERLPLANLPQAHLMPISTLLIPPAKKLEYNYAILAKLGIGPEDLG

[6] = biological target: B3; test: enzyme inhibition kinetics (continuous coupled methyltransferase assay, A340); apparent Ki; 5 μM wt SonM, saturating SAM (1 mM), varying concentrations of SonA and of the inhibitor (SonA-BBD or SonA-2Me); non-linear regression in GraphPad Prism 8; details: both partners purified
[7] = biological target: the molecule itself; test: SEC; oligomeric state of individually expressed and purified SonM and SonA (Supplementary Fig. 6); Superdex 200 in 50 mM HEPES pH 8, 300 mM NaCl, 10% glycerol is the sizing step of the purification

Binder: B3
stoichiometry N [7]: 2

B4: SonA borosin binding domain only construct (SonA-BBD; 1-55) (domain or fragment, Shewanella oneidensis MR-1, UniProt Q8EGW2 1-55, looked up)
chain: MSGLSDFFTQLGQDAQLMEDYKQNPEAVMRAHGLTDEQINAVMTGDMEKLKTLSG
notes: SonA (SO1479) of Shewanella oneidensis MR-1, helical bundle composed of the first 55 amino acids (1-55); The his6 tag is stated for the individual construct; for the co-expression construct it is surmised from the template plasmid pMF1181; also called BBD-SonA; his6-SonA-BBD
Ki [6]: 3.9 µM

Next, values leading:

apparent KM for SonA, coupled methyltransferase kinetics assay, saturating SAM [1]: 7.6 µM
apparent KM for SonA, coupled methyltransferase kinetics assay, saturating SAM [2]: 18 µM
apparent KM for SonA, coupled methyltransferase kinetics assay, saturating SAM [3]: 9.6 µM
apparent KM for SonA, coupled methyltransferase kinetics assay, saturating SAM [4]: 8.2 µM
apparent KM for SonA, coupled methyltransferase kinetics assay, saturating SAM [5]: 6.2 µM
B1: unmethylated SonA precursor peptide (SonA-0Me), his6-tagged (natural protein, Shewanella oneidensis MR-1, UniProt Q8EGW2 1-71, looked up)
chain: MSGLSDFFTQLGQDAQLMEDYKQNPEAVMRAHGLTDEQINAVMTGDMEKLKTLSGDSSYQSYLVISHGNGD

Ki [6]: 160 µM
B2: doubly α-N-methylated SonA precursor peptide (SonA-2Me), his6-tagged (natural protein, Shewanella oneidensis MR-1, UniProt Q8EGW2 1-71, looked up)
chain: MSGLSDFFTQLGQDAQLMEDYKQNPEAVMRAHGLTDEQINAVMTGDMEKLKTLSGDSSYQSYLVISHGNGD
modifications: N-methyl-L-leucine (MLE) at 63; N-methyl-L-isoleucine (IML) at 65 (backbone α-N-methylations)
notes: SonA (SO1479), borosin precursor peptide of Shewanella oneidensis MR-1; BBD leader 1-53, linker 54-61, core peptide 62-71; also called doubly methylated SonA; SO1479; source: E. coli BL21(DE3), co-expressed from pET28b with SonM, purified (Ni-NTA or HisTrap, Superdex 200 SEC)
